Tested on: CSCC[C@H](N)C(=O)Nc1ccc2c(C)cc(=O)oc2c1
Test: purified protein
Conditions: Fe(II) form, 10 μM FeCl2

“MtMetAP1a (Mycobacterium tuberculosis H37Rv)” was tested. Which Km did it give?
The Km was 161 µM.
